For one test, the target named is mesothelin (MSLN) (UniProt Q13421). Put plainly: 4 C cell binding assay on Panc-1 (MSLN strongly-positive) cells, E4 qPCR. On the technique in general: In qPCR the cycle at which signal appears reflects the starting amount.
The target in test [1] is T1, CD133 (Prominin-1) (UniProt O43490 20-865).
T1 sequence: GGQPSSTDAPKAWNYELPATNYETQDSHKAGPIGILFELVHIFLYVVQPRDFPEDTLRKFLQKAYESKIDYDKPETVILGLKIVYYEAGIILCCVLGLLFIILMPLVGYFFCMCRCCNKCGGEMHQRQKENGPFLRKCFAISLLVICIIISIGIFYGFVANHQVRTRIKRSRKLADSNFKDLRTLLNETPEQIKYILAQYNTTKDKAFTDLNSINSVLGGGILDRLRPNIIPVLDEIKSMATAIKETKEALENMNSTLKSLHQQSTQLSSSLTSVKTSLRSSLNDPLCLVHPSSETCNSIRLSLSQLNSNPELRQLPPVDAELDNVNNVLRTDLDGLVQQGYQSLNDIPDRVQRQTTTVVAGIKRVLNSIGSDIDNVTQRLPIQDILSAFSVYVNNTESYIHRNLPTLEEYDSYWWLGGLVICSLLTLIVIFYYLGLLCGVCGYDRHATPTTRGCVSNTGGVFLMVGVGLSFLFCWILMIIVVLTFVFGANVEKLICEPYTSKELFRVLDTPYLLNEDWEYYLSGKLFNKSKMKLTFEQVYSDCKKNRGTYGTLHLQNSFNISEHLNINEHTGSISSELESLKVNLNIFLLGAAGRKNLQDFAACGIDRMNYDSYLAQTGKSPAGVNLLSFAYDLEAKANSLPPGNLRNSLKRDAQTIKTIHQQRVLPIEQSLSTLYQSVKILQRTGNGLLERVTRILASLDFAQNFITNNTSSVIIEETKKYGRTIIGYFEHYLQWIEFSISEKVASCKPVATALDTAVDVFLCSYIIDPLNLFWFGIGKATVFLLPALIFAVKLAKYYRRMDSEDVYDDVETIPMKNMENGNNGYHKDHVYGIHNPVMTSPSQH
The experiment in a line: cell-based or functional assay.

Test [2] addresses T1, CD133 (Prominin-1). Put plainly: cell binding assay with and without anti-CD133 antibody (FIG. 17).
The target of test [3] is T2, AdML-5WT, control adenovirus with the native (wild type) Ad5 fiber (adenovirus type 5, UniProt P11818 1-581).
T2 construct: The whole virion stood in the assays; also called AdML-WT; wild type fiber virus
T2 sequence: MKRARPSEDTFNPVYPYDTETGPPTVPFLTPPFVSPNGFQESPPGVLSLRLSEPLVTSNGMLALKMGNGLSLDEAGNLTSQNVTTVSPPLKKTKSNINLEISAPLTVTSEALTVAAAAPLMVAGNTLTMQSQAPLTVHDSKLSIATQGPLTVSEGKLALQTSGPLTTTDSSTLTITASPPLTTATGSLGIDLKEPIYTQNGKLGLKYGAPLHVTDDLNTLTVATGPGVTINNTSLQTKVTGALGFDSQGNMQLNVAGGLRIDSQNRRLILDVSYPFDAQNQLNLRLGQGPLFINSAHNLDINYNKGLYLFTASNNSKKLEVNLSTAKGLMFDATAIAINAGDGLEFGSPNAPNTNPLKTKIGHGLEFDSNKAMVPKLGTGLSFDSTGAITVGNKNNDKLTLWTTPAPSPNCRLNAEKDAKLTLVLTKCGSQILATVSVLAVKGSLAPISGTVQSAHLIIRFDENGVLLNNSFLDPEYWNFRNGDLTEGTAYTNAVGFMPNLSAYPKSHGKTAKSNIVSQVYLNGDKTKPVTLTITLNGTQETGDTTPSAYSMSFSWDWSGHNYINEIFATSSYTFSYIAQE
Put plainly: cell binding assay, 10 vp/cell, 2 h, 4 C, E4 qPCR (FIG. 26).

Changes are numbered by the printed parent chain.

Turning to “AdML-VTIN, adenovirus with the VTINRSA (SEQ ID NO:12) targeting motif in the AB-loop of the fiber knob (from UniProt P11818 1-410; P11818 418-581)”, in the test with mesothelin (MSLN), the fold binding against AdMG553 was found to be 2 fold and the fold binding against AdML-5WT was found to be 5 fold.

B1: AdML-TYML, adenovirus with the TYMLSRN (SEQ ID NO:106) targeting motif in the AB-loop of the fiber knob (other)
chain: T2 sequence with C411T, R412Y, L413M, N414L, A415S, E416R, K417N
notes: also called TYML virus; Ad-TYML
B1: in the test with CD133 (Prominin-1) [1], the “viral copy number after infection (E4 qPCR)” value was more than 5 fold. In the test with CD133 (Prominin-1) [2], the “fold binding, CD133(+) against CD133(-) 293 cells” value was 4 fold.

B2: Coxsackie adenovirus receptor (CAR) (receptor)
chain: LSITTPEEMIEKAKGETAYLPCKFTLSPEDQGPLDIEWLISPADNQKVDQVIILYSGDKIYDDYYPDLKGRVHFTSNDLKSGDASINVTNLQLSDIGTYQCKVKKAPGVANKKIHLVVLVKPSGARCYVDGSEEIGSDFKIKCEPKEGSLPLQYEWQKLSDSQKMPTSWLAEMTSSVISVKNASSEYSGTYSCTVRNRVGSDQCLLRLNVVPPSNKAGLIAGAIIGTLLALALIGLIIFCCRKKRREEKYEKEVHHDIREDVPPPKSRTSTARSYIGSNHSSLGSMSPSNMEGYSKTQYNQVPSEDFERTPQSPTLPPAKVAAPNLSRMGAIPVMIPAQSKDGSIV
notes: whole, on cells; the cell lines are human; also called Ad5 receptor; natural Ad receptor
Turning to B2, the binding result in test [3] is given as “binds”.
